Variants at the floor of the assay were thinned out.
Key:
biotinyl-Leu-oxazolone = test: self-aminoacylation, catalytic enhancement (BLO) (fold over background); higher = more active; k-Seq, kA / k0A0; sequences stand for … in GGGAAUGGAUCCACAUCUACGAAUUC…UUCACUGCAGACUUGACGAAGCUG
Outline: (§1)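 Mutagenized RNA pools with a 21-nt variable region (0.43 μM) reacted with each biotinyl-aminoacyl-oxazolone at 2–1250 μM. Reactions ran in 50 μL HEPES/NaCl/KCl/MgCl2/CaCl2 buffer with 5% acetonitrile, pH 6.9–7.0, for 90 minutes at room temperature. Streptavidin-captured RNA was quantified by triplicate qPCR and Illumina sequencing, and per-sequence fraction reacted was fit to a pseudo-first-order model with 1000 bootstraps. Catalytic enhancement is median kA divided by the uncatalyzed rate, the low-activity peak of a bimodal Gaussian fit.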

biotinyl-Trp-oxazolone = test: self-aminoacylation, catalytic enhancement (BWO) (fold over background); higher = more active; k-Seq, kA / k0A0; sequences stand for … in GGGAAUGGAUCCACAUCUACGAAUUC…UUCACUGCAGACUUGACGAAGCUG
Outline: as §1

biotinyl-Met-oxazolone = test: self-aminoacylation, catalytic enhancement (BMO) (fold over background); higher = more active; k-Seq, kA / k0A0; sequences stand for … in GGGAAUGGAUCCACAUCUACGAAUUC…UUCACUGCAGACUUGACGAAGCUG
Outline: as §1

biotinyl-Phe-oxazolone = test: self-aminoacylation, catalytic enhancement (BFO) (fold over background); higher = more active; k-Seq, kA / k0A0; sequences stand for … in GGGAAUGGAUCCACAUCUACGAAUUC…UUCACUGCAGACUUGACGAAGCUG
Outline: as §1

biotinyl-Ile-oxazolone = test: self-aminoacylation, catalytic enhancement (BIO) (fold over background); higher = more active; k-Seq, kA / k0A0; sequences stand for … in GGGAAUGGAUCCACAUCUACGAAUUC…UUCACUGCAGACUUGACGAAGCUG
Outline: as §1

biotinyl-Val-oxazolone = test: self-aminoacylation, catalytic enhancement (BVO) (fold over background); higher = more active; k-Seq, kA / k0A0; sequences stand for … in GGGAAUGGAUCCACAUCUACGAAUUC…UUCACUGCAGACUUGACGAAGCUG
Outline: as §1

Sequence	self-aminoacylation (biotinyl-Leu-oxazolone)	self-aminoacylation (biotinyl-Trp-oxazolone)	self-aminoacylation (biotinyl-Met-oxazolone)	self-aminoacylation (biotinyl-Phe-oxazolone)	self-aminoacylation (biotinyl-Ile-oxazolone)	self-aminoacylation (biotinyl-Val-oxazolone)
CCACAAUUCAAGCAAUCGUUC [Fam1B.1 aminoacylation ribozyme variant]	0.713	0.719	0.815	1.06	0.909	0.864
CCACAAUUCAAGCAAUCUGUC [Fam1B.1 aminoacylation ribozyme variant]	0.558	0.559	0.524	0.965	0.576	0.746
CCACAAUUCAAGCAAUGGGUC [Fam1B.1 aminoacylation ribozyme variant]	1.17	0.734	1.13	0.531	1.22	1.03
CCACAAUUCAAGUAAUCGGUC [Fam1B.1 aminoacylation ribozyme variant]	0.898	1.36	0.906	2.55	0.96	0.91
CCACAAUUCAUGCAAUCGGUC [Fam1B.1 aminoacylation ribozyme variant]	1.16	0.87	1.1	1.19	1.25	1.41
CCACAAUUGAAGCAAUCGGUC [Fam1B.1 aminoacylation ribozyme variant]	0.716	1.16	0.746	0.687	0.913	0.869
CCACACAACAAGCAAUCGGUC [Fam1B.1 aminoacylation ribozyme variant]	0.863	0.693	0.781	1.15	0.894	0.899
CCACACAUCAACCAAUCGGUC [Fam1B.1 aminoacylation ribozyme variant]	0.487	1.26	0.622	1.2	0.785	0.745
CCACACAUCAAGCAAUCAGUC [Fam1B.1 aminoacylation ribozyme variant]	0.708	0.575	0.664	1.22	0.82	0.708
CCACACAUCAAGCAAUCGUUC [Fam1B.1 aminoacylation ribozyme variant]	0.722	0.543	0.617	0.673	0.807	0.783
CCACACAUCAAGCAAUGGGUC [Fam1B.1 aminoacylation ribozyme variant]	0.806	0.706	0.97	1.33	1.08	1.08
CCACACAUCAAGGAAUCGGUC [Fam1B.1 aminoacylation ribozyme variant]	1.02	0.926	0.804	0.77	1.04	0.884
CCACACCUCAAGCAAUCAGUC [Fam1B.1 aminoacylation ribozyme variant]	0.6	0.558	0.804	1.26	0.843	0.856
CCACACCUCAAGCAAUCGAUC [Fam1B.1 aminoacylation ribozyme variant]	0.553	0.298	0.442	0.758	0.643	0.76
CCACACCUCAAGCAAUUGGUC [Fam1B.1 aminoacylation ribozyme variant]	0.873	0.738	0.699	1.05	0.937	0.754
CCACACCUCAAGCAGUCGGUC [Fam1B.1 aminoacylation ribozyme variant]	1.47	1.02	1.02	0.725	1.34	1.6
CCACACCUCAAGCCAUCGGUC [Fam1B.1 aminoacylation ribozyme variant]	1.41	1.55	1.38	2.01	1.27	1.42
CCACACCUUAAGCAAUCGGUC [Fam1B.1 aminoacylation ribozyme variant]	1.03	0.714	1.15	0.93	1.16	1.19
CCACACGUCAAACAAUCGGUC [Fam1B.1 aminoacylation ribozyme variant]	1.45	1.83	1.2	1.2	1.21	1.34
CCACACGUCAACCAAUCGGUC [Fam1B.1 aminoacylation ribozyme variant]	1.17	1.32	1.07	1.24	1.09	1.47
CCACACGUCAAGCAAUCGUUC [Fam1B.1 aminoacylation ribozyme variant]	0.842	1.01	1.17	0.752	0.799	1.03
CCACACGUCAAGCGAUCGGUC [Fam1B.1 aminoacylation ribozyme variant]	1.11	1.61	1.14	1.06	1.21	2.3
CCACACGUCAAUCAAUCGGUC [Fam1B.1 aminoacylation ribozyme variant]	0.966	0.926	1.09	1.24	1.05	1.1
CCACACGUCAGGCAAUCGGUC [Fam1B.1 aminoacylation ribozyme variant]	1.81	1.93	1.33	3.26	1.38	2.52
CCACACUACAAGCAACCGGUC [Fam1B.1 aminoacylation ribozyme variant]	0.948	0.793	0.649	1.03	1.29	0.674
CCACACUACAAGCAAUCGCUC [Fam1B.1 aminoacylation ribozyme variant]	1.31	1.32	1.59	1.2	1.22	1.29

Sequence	self-aminoacylation (biotinyl-Leu-oxazolone)	self-aminoacylation (biotinyl-Trp-oxazolone)	self-aminoacylation (biotinyl-Met-oxazolone)	self-aminoacylation (biotinyl-Phe-oxazolone)	self-aminoacylation (biotinyl-Ile-oxazolone)	self-aminoacylation (biotinyl-Val-oxazolone)
CCACACUACAAGCAAUCGGUU [Fam1B.1 aminoacylation ribozyme variant]	0.677	1.39	0.918	1.55	1.02	1.08
CCACACUACAAGCAUUCGGUC [Fam1B.1 aminoacylation ribozyme variant]	1.73	2.04	2.58	3.61	2.14	2.71
CCACACUACAAUCAAUCGGUC [Fam1B.1 aminoacylation ribozyme variant]	0.688	0.811	0.663	1.18	0.797	0.877
CCACACUCCAAGCAAUCAGUC [Fam1B.1 aminoacylation ribozyme variant]	0.73	0.672	0.699	1.54	0.781	0.911
CCACACUCCAAGCACUCGGUC [Fam1B.1 aminoacylation ribozyme variant]	0.768	0.831	1.32	0.642	1.35	1.24
CCACACUCGAAGCAAUCGGUC [Fam1B.1 aminoacylation ribozyme variant]	0.764	0.864	1.1	1.07	1.2	1.11
CCACACUGCAAGCAAUCAGUC [Fam1B.1 aminoacylation ribozyme variant]	0.852	0.551	0.584	1.1	0.79	0.741
CCACACUGCAGGCAAUCGGUC [Fam1B.1 aminoacylation ribozyme variant]	1.57	1.38	1.76	5.92	1.44	2.17
CCACACUGCAUGCAAUCGGUC [Fam1B.1 aminoacylation ribozyme variant]	0.507	0.659	0.803	0.714	0.875	0.857
CCACACUGGAAGCAAUCGGUC [Fam1B.1 aminoacylation ribozyme variant]	0.737	0.543	0.78	0.508	0.881	1.08
CCACACUUAAAGCAAACGGUC [Fam1B.1 aminoacylation ribozyme variant]	0.616	0.578	0.502	0.924	0.685	0.765
CCACACUUAAAGCAAUAGGUC [Fam1B.1 aminoacylation ribozyme variant]	0.662	0.592	0.509	1.24	0.67	0.913
CCACACUUAAAGCAAUCUGUC [Fam1B.1 aminoacylation ribozyme variant]	0.414	0.349	0.391	0.686	0.463	0.676
CCACACUUCAAACAAACGGUC [Fam1B.1 aminoacylation ribozyme variant]	0.598	0.471	0.626	0.66	0.692	0.697
CCACACUUCAAACAAGCGGUC [Fam1B.1 aminoacylation ribozyme variant]	0.728	0.603	0.68	0.971	0.922	0.746
CCACACUUCAAACAAUCGGUC [Fam1B.1 aminoacylation ribozyme variant]	2.32	47	1.46	102	1.38	1.53
CCACACUUCAACCAAUCCGUC [Fam1B.1 aminoacylation ribozyme variant]	0.784	0.919	0.672	1.33	1.07	0.867
CCACACUUCAACCAAUCGGAC [Fam1B.1 aminoacylation ribozyme variant]	0.981	1.26	0.789	2.28	0.897	1.02
CCACACUUCAACCAAUCGGUG [Fam1B.1 aminoacylation ribozyme variant]	6.37	5.38	3.66	4.06	3.05	2.91
CCACACUUCAACCAUUCGGUC [Fam1B.1 aminoacylation ribozyme variant]	1.25	1.98	1.52	6.93	1.51	1.35
CCACACUUCAACGAAUCGGUC [Fam1B.1 aminoacylation ribozyme variant]	0.962	9.08	1.03	11.2	0.873	1.09
CCACACUUCAAGAAAUCGGAC [Fam1B.1 aminoacylation ribozyme variant]	0.572	0.393	0.663	0.823	0.898	0.685
CCACACUUCAAGAUAUCGGUC [Fam1B.1 aminoacylation ribozyme variant]	0.736	0.657	0.624	0.633	0.774	0.795
CCACACUUCAAGCAAACAGUC [Fam1B.1 aminoacylation ribozyme variant]	0.674	0.375	0.609	1.09	0.816	0.757
CCACACUUCAAGCAAACGGUU [Fam1B.1 aminoacylation ribozyme variant]	1.34	0.973	1.25	1.41	1.32	1.59

Source: the supplement of paper PMC9233669
